Laboratory results: patent US20230121433A1

Experiments:
Assay in all cases: cell-based or functional assay
CSR 01 CD2.DH.z = target: CSR 01 CD2.DH.z
CSR 2DH.2TF2z WT = target: CSR 2DH.2TF2z WT
CSR 2DH.TF2z = target: CSR 2DH.TF2z
CSR 82DH.2TF2z WT = target: CSR 82DH.2TF2z WT
CSR 82DH.TF2z = target: CSR 82DH.TF2z
Chain of CSR 82DH.TF2z (chain, as listed by the source): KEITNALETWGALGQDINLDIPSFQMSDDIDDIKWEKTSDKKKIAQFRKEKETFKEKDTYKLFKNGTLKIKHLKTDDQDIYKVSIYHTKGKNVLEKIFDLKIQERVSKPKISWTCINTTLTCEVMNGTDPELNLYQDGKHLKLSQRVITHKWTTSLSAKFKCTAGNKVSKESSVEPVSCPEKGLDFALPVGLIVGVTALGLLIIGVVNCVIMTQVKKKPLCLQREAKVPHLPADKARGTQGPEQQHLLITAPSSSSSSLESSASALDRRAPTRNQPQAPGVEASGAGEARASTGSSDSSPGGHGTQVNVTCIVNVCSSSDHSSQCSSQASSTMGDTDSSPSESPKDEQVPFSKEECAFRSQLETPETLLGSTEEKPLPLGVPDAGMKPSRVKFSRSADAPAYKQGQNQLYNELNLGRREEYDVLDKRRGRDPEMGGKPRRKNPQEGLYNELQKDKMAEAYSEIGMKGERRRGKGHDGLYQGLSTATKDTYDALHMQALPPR

Chain of CSR 01 CD2.DH.z (chain, as listed by the source): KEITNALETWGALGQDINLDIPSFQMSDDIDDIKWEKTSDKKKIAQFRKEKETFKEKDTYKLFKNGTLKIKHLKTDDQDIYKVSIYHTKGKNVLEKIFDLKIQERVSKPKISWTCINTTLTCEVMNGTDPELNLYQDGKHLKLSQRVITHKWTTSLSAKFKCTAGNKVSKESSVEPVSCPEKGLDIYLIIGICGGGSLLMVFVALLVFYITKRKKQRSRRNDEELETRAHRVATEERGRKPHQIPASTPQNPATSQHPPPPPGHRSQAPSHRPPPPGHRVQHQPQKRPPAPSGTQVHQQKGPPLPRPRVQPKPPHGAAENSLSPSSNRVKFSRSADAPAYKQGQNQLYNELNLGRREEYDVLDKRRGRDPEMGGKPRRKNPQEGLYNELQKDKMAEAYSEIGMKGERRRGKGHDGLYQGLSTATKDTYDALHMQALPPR
Chain of CSR 2DH.TF2z (chain, as listed by the source): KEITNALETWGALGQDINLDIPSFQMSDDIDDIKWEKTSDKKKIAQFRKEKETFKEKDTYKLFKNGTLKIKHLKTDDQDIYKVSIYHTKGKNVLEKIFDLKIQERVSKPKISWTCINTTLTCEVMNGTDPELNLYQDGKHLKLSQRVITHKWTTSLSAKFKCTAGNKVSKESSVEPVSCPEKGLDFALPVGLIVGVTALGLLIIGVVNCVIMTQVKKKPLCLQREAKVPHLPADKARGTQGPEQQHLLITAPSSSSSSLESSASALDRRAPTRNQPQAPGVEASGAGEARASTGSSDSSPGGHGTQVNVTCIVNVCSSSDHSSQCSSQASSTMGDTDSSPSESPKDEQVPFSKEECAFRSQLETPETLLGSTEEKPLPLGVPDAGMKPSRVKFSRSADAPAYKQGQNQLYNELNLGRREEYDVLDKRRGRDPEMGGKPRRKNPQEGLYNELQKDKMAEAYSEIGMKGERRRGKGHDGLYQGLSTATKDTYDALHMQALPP
Chain of CSR 2DH.2TF2z WT (chain, as listed by the source): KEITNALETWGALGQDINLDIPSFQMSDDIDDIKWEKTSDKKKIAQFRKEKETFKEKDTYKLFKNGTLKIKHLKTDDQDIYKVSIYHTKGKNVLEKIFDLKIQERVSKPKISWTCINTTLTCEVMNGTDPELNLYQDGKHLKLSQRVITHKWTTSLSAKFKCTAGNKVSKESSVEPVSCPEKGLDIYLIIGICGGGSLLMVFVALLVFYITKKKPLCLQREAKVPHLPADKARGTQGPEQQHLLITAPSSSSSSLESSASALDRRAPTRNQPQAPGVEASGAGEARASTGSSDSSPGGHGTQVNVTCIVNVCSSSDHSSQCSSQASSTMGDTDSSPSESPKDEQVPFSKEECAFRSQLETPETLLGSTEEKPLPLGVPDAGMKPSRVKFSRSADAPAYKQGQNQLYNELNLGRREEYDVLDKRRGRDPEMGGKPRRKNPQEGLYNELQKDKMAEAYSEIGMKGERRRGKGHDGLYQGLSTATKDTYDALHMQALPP
Chain of CSR 82DH.2TF2z WT (chain, as listed by the source): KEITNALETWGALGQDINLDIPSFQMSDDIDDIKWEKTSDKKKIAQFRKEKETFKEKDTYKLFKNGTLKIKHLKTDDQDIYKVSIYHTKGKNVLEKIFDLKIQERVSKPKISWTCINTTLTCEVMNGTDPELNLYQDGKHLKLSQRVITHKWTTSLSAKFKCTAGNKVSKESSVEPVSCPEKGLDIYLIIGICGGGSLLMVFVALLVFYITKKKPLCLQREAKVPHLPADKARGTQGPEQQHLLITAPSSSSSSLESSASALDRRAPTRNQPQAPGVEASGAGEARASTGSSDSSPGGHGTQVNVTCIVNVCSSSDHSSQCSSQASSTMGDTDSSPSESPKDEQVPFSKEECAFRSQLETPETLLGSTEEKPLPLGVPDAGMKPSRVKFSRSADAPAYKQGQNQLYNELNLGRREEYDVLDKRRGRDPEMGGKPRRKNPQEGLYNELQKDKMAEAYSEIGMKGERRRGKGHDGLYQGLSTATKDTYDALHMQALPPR

Substance: Immunocult Human CD2 T cell activator (StemCell Technologies)
- pSTAT5 Expression post activation in Treg cells (% of live cells), +16 hours, Donor 4 (CSR 01 CD2.DH.z): 7.1%
- pSTAT5 Expression post activation in Treg cells (% of live cells), +16 hours, Donor 5 (CSR 01 CD2.DH.z): 10.3%
- pSTAT5 Expression post activation in Treg cells (% of live cells), +24 hours, Donor 4 (CSR 01 CD2.DH.z): 10.5%
- pSTAT5 Expression post activation in Treg cells (% of live cells), +24 hours, Donor 5 (CSR 01 CD2.DH.z): 11.1%
- pSTAT5 Expression post activation in pan T cells (% of live cells), +4 hours, Donor 1 (% of live cells) (CSR 01 CD2.DH.z): 3.52
- pSTAT5 Expression post activation in pan T cells (% of live cells), +4 hours, Donor 2 (% of live cells) (CSR 01 CD2.DH.z): 41.1
- pSTAT5 Expression post activation in pan T cells (% of live cells), +24 hours, Donor 1 (% of live cells) (CSR 01 CD2.DH.z): 17.7
- pSTAT5 Expression post activation in pan T cells (% of live cells), +24 hours, Donor 2 (CSR 01 CD2.DH.z): 47.9%
- pSTAT5 Expression post activation in Treg cells (% of live cells), +16 hours, Donor 4 (CSR 2DH.2TF2z WT): 13.9%
- pSTAT5 Expression post activation in Treg cells (% of live cells), +16 hours, Donor 5 (% of live cells) (CSR 2DH.2TF2z WT): 10.3
- pSTAT5 Expression post activation in Treg cells (% of live cells), +24 hours, Donor 4 (% of live cells) (CSR 2DH.2TF2z WT): 15.8
- pSTAT5 Expression post activation in Treg cells (% of live cells), +24 hours, Donor 5 (% of live cells) (CSR 2DH.2TF2z WT): 13.5
- pSTAT5 Expression post activation in pan T cells (% of live cells), +4 hours, Donor 1 (CSR 2DH.2TF2z WT): 4.73%
- pSTAT5 Expression post activation in pan T cells (% of live cells), +4 hours, Donor 2 (% of live cells) (CSR 2DH.2TF2z WT): 2.78
- pSTAT5 Expression post activation in pan T cells (% of live cells), +24 hours, Donor 1 (% of live cells) (CSR 2DH.2TF2z WT): 8.34
- pSTAT5 Expression post activation in pan T cells (% of live cells), +24 hours, Donor 2 (% of live cells) (CSR 2DH.2TF2z WT): 15.8
- pSTAT5 Expression post activation in Treg cells (% of live cells), +16 hours, Donor 4 (% of live cells) (CSR 2DH.TF2z): 9.24
- pSTAT5 Expression post activation in Treg cells (% of live cells), +24 hours, Donor 4 (% of live cells) (CSR 2DH.TF2z): 8.64
- pSTAT5 Expression post activation in pan T cells (% of live cells), +4 hours, Donor 1 (% of live cells) (CSR 2DH.TF2z): 5.43
- pSTAT5 Expression post activation in pan T cells (% of live cells), +4 hours, Donor 2 (CSR 2DH.TF2z): 4.2%
- pSTAT5 Expression post activation in pan T cells (% of live cells), +24 hours, Donor 1 (CSR 2DH.TF2z): 5.67%
- pSTAT5 Expression post activation in pan T cells (% of live cells), +24 hours, Donor 2 (CSR 2DH.TF2z): 5.17%
- pSTAT5 Expression post activation in Treg cells (% of live cells), +16 hours, Donor 4 (CSR 82DH.2TF2z WT): 13.3%
- pSTAT5 Expression post activation in Treg cells (% of live cells), +16 hours, Donor 5 (% of live cells) (CSR 82DH.2TF2z WT): 7.45
- pSTAT5 Expression post activation in Treg cells (% of live cells), +24 hours, Donor 4 (CSR 82DH.2TF2z WT): 13.6%
- pSTAT5 Expression post activation in Treg cells (% of live cells), +24 hours, Donor 5 (CSR 82DH.2TF2z WT): 9.16%
- pSTAT5 Expression post activation in pan T cells (% of live cells), +4 hours, Donor 1 (CSR 82DH.2TF2z WT): 3.24%
- pSTAT5 Expression post activation in pan T cells (% of live cells), +4 hours, Donor 2 (% of live cells) (CSR 82DH.2TF2z WT): 11
- pSTAT5 Expression post activation in pan T cells (% of live cells), +24 hours, Donor 1 (% of live cells) (CSR 82DH.2TF2z WT): 5.5
- pSTAT5 Expression post activation in pan T cells (% of live cells), +24 hours, Donor 2 (CSR 82DH.2TF2z WT): 6.36%
- pSTAT5 Expression post activation in Treg cells (% of live cells), +16 hours, Donor 4 (% of live cells) (CSR 82DH.TF2z): 10.5
- pSTAT5 Expression post activation in Treg cells (% of live cells), +24 hours, Donor 4 (% of live cells) (CSR 82DH.TF2z): 11.6
- pSTAT5 Expression post activation in pan T cells (% of live cells), +4 hours, Donor 1 (% of live cells) (CSR 82DH.TF2z): 5.49
- pSTAT5 Expression post activation in pan T cells (% of live cells), +4 hours, Donor 2 (% of live cells) (CSR 82DH.TF2z): 5.09
- pSTAT5 Expression post activation in pan T cells (% of live cells), +24 hours, Donor 1 (% of live cells) (CSR 82DH.TF2z): 6.16
- pSTAT5 Expression post activation in pan T cells (% of live cells), +24 hours, Donor 2 (% of live cells) (CSR 82DH.TF2z): 10.1
